Experimental data as given in US20190169308A1 (ALLIGATOR BIOSCIENCE, published 2019).
Numbering of substitutions follows the chain as printed.

T1: 5T4 (SPR antigen) (UniProt Q13641 32-355, limits assumed, biotinylated on the MASS-1 platform)
T1 construct: also called biotinylated 5T4
T1 sequence (looked up): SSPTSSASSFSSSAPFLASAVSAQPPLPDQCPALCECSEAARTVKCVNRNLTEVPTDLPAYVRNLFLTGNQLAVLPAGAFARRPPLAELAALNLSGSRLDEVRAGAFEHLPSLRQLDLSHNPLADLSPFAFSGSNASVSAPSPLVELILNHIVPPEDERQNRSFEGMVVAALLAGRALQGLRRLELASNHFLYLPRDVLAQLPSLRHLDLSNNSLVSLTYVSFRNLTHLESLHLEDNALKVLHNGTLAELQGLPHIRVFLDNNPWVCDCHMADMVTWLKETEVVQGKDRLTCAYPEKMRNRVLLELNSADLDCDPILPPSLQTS

T2: human 5T4 on transfected cells (human, UniProt Q13641 32-420)
T2 construct: whole, on cells; also called B16-5T4; CHOh5T4
T2 sequence (looked up): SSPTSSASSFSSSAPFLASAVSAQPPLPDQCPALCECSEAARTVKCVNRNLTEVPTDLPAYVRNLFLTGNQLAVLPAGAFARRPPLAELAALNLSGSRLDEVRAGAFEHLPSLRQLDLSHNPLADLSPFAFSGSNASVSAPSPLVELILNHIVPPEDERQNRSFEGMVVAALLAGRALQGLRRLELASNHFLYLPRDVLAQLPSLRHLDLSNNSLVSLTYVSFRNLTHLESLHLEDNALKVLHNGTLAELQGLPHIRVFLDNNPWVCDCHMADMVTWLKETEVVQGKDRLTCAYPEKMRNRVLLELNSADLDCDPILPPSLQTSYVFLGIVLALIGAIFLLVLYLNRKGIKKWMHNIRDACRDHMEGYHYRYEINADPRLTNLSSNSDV

T3: mouse 5T4 on transfected cells (mouse, UniProt Q9Z0L0 32-426)
T3 construct: whole, on cells; also called murine 5T4
T3 sequence (looked up): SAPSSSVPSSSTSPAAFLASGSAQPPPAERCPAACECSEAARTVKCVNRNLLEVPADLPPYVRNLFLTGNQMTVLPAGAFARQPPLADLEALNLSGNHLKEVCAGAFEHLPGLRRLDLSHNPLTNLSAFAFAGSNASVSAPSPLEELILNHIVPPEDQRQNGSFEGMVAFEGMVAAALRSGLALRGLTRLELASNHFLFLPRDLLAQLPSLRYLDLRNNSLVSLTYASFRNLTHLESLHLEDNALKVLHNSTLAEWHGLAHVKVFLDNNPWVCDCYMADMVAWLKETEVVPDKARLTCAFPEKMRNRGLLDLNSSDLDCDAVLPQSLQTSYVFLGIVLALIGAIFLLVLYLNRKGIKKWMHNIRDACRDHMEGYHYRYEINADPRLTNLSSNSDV

T4: cynomolgus 5T4 on transfected CHO cells (Macaca mulatta (cynomolgus), UniProt F7CT46 35-420)
T4 construct: also called cyno5T4; cy5T4
T4 sequence: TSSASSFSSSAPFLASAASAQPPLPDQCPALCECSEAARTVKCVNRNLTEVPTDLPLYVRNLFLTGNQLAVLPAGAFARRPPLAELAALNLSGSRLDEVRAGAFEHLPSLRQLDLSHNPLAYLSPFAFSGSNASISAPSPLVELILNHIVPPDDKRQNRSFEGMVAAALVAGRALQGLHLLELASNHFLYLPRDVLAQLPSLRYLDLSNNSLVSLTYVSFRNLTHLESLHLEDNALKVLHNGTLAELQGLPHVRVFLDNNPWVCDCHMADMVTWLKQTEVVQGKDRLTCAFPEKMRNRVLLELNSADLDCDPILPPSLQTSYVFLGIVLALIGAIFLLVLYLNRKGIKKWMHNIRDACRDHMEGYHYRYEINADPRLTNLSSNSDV

B1: 1210/1211 (antibody, V domains shown)
VH: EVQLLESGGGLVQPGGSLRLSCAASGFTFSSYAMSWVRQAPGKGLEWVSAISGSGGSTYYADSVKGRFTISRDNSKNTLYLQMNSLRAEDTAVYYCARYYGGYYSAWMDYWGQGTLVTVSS
VL: DIQMTQSPSSLSASVGDRVTITCRASQSISSYLNWYQQKPGKAPKLLIYAASSLQSGVPSRFSGSGSGTDFTLTISSLQPEDFATYYCQQTYGYLHTFGQGTKLEIK
B2: 1206/1207 (antibody, V domains shown)
VH: EVQLLESGGGLVQPGGSLRLSCAASGFTFSGSSMSWVRQAPGKGLEWVSSIYYSGSGTYYADSVKGRFTISRDNSKNTLYLQMNSLRAEDTAVYYCARYGRNVHPYNLDYWGQGTLVTVSS
VL: B1 VL with T91G, G93Y, H96P

Columns and labels:
5T4 (SPR antigen) [1] = molecular target: T1, 5T4 (SPR antigen); assay: SPR Biacore 3000, amine-coupled 5T4, mAb injected (bivalent)
Description: (§1) Binding kinetics of the 5T4-specific mAbs have been studied using two different SPR-based platforms, the Biacore 3000 (GE Healthcare) and the MASS-1 platform (Sierra Sensors). Briefly, 5T4 was captured at the sensor chip surface either via direct amine coupling (Biacore platform) or using a streptavidin coated chip and biotinylated 5T4 (MASS-1 platform). The different 5T4-specific mAbs were then injected over the chip in increasing concentrations and the association and dissociation rates studied in real time. A 1:1 Langmuir model was used for curve fitting.

[2] = molecular target: T2, human 5T4 on transfected cells; assay: flow cytometry, human 5T4-transfected CHO cells
Description: Analysis of 5T4 mAb binding with flow cytometry was performed using 5T4-transfected cell lines and as negative control, mock transfected cells. Three different transfected cell lines used were used for this study; B16, A9 and CHO, transfected either with a 5T4 construct or with an empty vector control construct. Cells were stained with 5T4 antibodies diluted in FACS buffer (PBS, 0.5% BSA and 0.02% NaN₃). […] Samples were analysed either on a FACSCalibur or a FACSverse (BD Biosciences, Heidelberg, Germany) and mean fluorescence intensity (MFI) determined.
In a new attempt to calculate EC50 with flow cytometry a 5T4 mAb dose response experiment was performed using CHO cells stably transfected with human 5T4.

[3] = molecular target: T3, mouse 5T4 on transfected cells; assay: flow cytometry, mouse 5T4-transfected cells
[4] = molecular target: T2, human 5T4 on transfected cells; assay: flow cytometry, 5T4-transfected B16 cells
[5] = molecular target: T4, cynomolgus 5T4 on transfected CHO cells; assay: flow cytometry, cynomolgus 5T4-transfected CHO cells
Description: (§2) The potency of 5T4 antibodies in binding to cynomolgus 5T4 was determined by flow cytometry. CHO cells were stably transfected with […] (cynomolgus) 5T4. […] Samples were analysed either on a FACSCalibur or a FACSverse (BD Biosciences, Heidelberg, Germany) and mean fluorescence intensity (MFI) determined. […] To compare the EC50 values between human and cynomolgus 5T4, the cy5T4/hu5T4 ratio was calculated from the experiment with the full dose-response.

5T4 (SPR antigen) [6] = molecular target: T1, 5T4 (SPR antigen); assay: SPR MASS-1, biotinylated 5T4 on streptavidin chip, mAb injected (bivalent)
Description: as §1

[7] = molecular target: T4, cynomolgus 5T4 on transfected CHO cells; assay: flow cytometry, 5T4-transfected CHO cells
Description: as §2

Binder	Kd (5T4 (SPR antigen) [1])	koff (5T4 (SPR antigen) [1])	kon (5T4 (SPR antigen) [1])	EC50 [2]	binding result [3]	EC50 [4]	EC50 [5]	koff (5T4 (SPR antigen) [6])	kon (5T4 (SPR antigen) [6])	Ratio EC50cyno5T4/h5T4 [7]
B1	0.2 nM	0.0001 s⁻¹	500000 M⁻¹ s⁻¹	0.81 nM	no binding	0.8 nM	0.7 nM	0.00019 s⁻¹	510000 M⁻¹ s⁻¹	0.9
B2	2.3 nM	0.00028 s⁻¹	130000 M⁻¹ s⁻¹	0.51 nM	no binding	1.8 nM	1.53 nM	0.00013 s⁻¹	1.4e+06 M⁻¹ s⁻¹	3
